Reference: patent US20160243230A1

Biological target: Vκ4Len(1-22) peptide, P06312
Test: EuLISA, peptide dried on the plate, 11-1F4 titrated from 100 nM

- EC50: 500 pM
B1: murine 11-1F4 monoclonal antibody (antibody)
chain 1: QVQLKESGPGLVAPSQSLSITCTVSGFSLSSYGVSWVRQPPGKGLEWLGVIWGDGSTNYHPNLMSRLSISKDISKSQVLFKLNSLQTDDTATYYCVTLDYWGQGTSVTVSS
chain 2: DVVMTQTPLSLPVSLGDQASISCRSSQSLVHRNGNTYLHWYLQKPGQSPKLLIYKVSNRFSGVPDRFSGSGSGTDFTLKISRVEAEDLGLYFCFQTTYVPNTFGGGTKLEIK
